Measured values reported in the supplement of paper PMC11246515.
± gives the standard deviation of the averaged measurements.

Test: total protein half-life in vivo (active degradation + dilution); higher = more stable protein
[1] = E. coli NCM3722 delta-clpP delta-lon delta-hslV, growth: N-lim chemostat, doubling time 6 h
[2] = E. coli NCM3722 delta-hslV, growth: N-lim chemostat, doubling time 6 h
[3] = E. coli NCM3722 delta-lon, growth: N-lim chemostat, doubling time 6 h
[4] = wild type E. coli NCM3722, growth: C-lim chemostat, doubling time 3 h
[5] = wild type E. coli NCM3722, growth: C-lim chemostat, doubling time 12 h
[6] = wild type E. coli NCM3722, growth: P-lim chemostat, doubling time 6 h
[7] = wild type E. coli NCM3722, growth: P-lim chemostat, doubling time 12 h
[8] = E. coli NCM3722 delta-clpP, growth: N-lim chemostat, doubling time 6 h
[9] = E. coli NCM3722 delta-smpB, growth: N-lim chemostat, doubling time 6 h
[10] = wild type E. coli NCM3722, growth: C-lim chemostat, doubling time 6 h
[11] = wild type E. coli NCM3722, growth: N-lim chemostat, doubling time 6 h
[12] = wild type E. coli NCM3722, growth: N-lim chemostat, doubling time 12 h

Row | Sequence | total protein half-life in vivo [1] [h] | total protein half-life in vivo [2] [h] | total protein half-life in vivo [3] [h] | total protein half-life in vivo [4] [h] | total protein half-life in vivo [5] [h] | total protein half-life in vivo [6] [h] | total protein half-life in vivo [7] [h] | total protein half-life in vivo [8] [h] | total protein half-life in vivo [9] [h] | total protein half-life in vivo [10] [h] | total protein half-life in vivo [11] [h] | total protein half-life in vivo [12] [h]
1 | MNTLTFLLSTVIELYTMVLLLRIWMQWAHCDFYNPFSQFVVKVTQPIIGPLRRVIPAMGPIDSASLLVAYILSFIKAIVLFKVVTFLPIIWIAGLLILLKTIGLLIFWVLLVMAIMSWVSQGRSPIEYVLIQLADPLLRPIRRLLPAMGGIDFSPMILVLLLYVINMGVAEVLQATGNMLLPGLWMAL | 6.46 | 5.6 | 6.12 | 2.92 | 10.6 | 5.07 | 8.69 |  |  |  |  | 
2 | MNTTLFRWPVRVYYEDTDAGGVVYHASYVAFYERARTEMLRHHHFSQQALMAERVAFVVRKMTVEYYAPARLDDMLEIQTEITSMRGTSLVFTQRIVNAENTLLNEAEVLVVCVDPLKMKPRALPKSIVAEFKQ [P0A8Z3] | 5.87 ± 0.51 | 6.41 ± 0.61 | 6.27 ± 0.26 |  | 11.1 ± 2.1 | 5.68 ± 0.45 | 12.63 ± 0.092 | 6.54 ± 0.91 | 5.7 ± 0.13 | 5.99 ± 0.073 | 5.28 ± 0.094 | 12.3 ± 2.7
3 | MNTTTPMGMLQQPRPFFMIFFVELWERFGYYGVQGVLAVFFVKQLGFSQEQAFVTFGAFAALVYGLISIGGYVGDHLLGTKRTIVLGALVLAIGYFMTGMSLLKPDLIFIALGTIAVGNGLFKANPASLLSKCYPPKDPRLDGAFTLFYMSINIGSLIALSLAPVIADRFGYSVTYNLCGAGLIIALLVYIACRGMVKDIGSEPDFRPMSFSKLLYVLLGSVVMIFVCAWLMHNVEVANLVLIVLSIVVTIIFFRQAFKLDKTGRNKMFVAFVLMLEAVVFYILYAQMPTSLNFFAINNVHHEILGFSINPVSFQALNPFWVVLASPILAGIYTHLGNKGKDLSMPMKFTLGMFMCSLGFLTAAAAGMWFADAQGLTSPWFIVLVYLFQSLGELFISALGLAMIAALVPQHLMGFILGMWFLTQAAAFLLGGYVATFTAVPDNITDPLETLPVYTNVFGKIGLVTLGVAVVMLLMVPWLKRMIATPESH | 6.66 ± 0.32 |  | 5.78 ± 0.79 | > 4 |  | 6.47 | 11.1 ± 1.4 | 6.8 ± 0.1 | > 8 |  |  | 6.12
4 | MNTVCTHCQAINRIPDDRIEDAAKCGRCGHDLFDGEVINATGETLDKLLKDDLPVVIDFWAPWCGPCRNFAPIFEDVAQERSGKVRFVKVNTEAERELSSRFGIRSIPTIMIFKNGQVVDMLNGAVPKAPFDSWLNESL [P0AGG4] | 5.02 ± 0.31 | 2.37 ± 0.6 | 5.32 ± 0.43 | 1.6 ± 0.2 | 5.03 ± 1.5 | 2.24 ± 0.53 | 4.54 ± 0.14 | 2.89 ± 0.54 | 2.48 ± 1.3 | 3.09 ± 0.67 | 2.26 ± 0.083 | 3.44 ± 0.91
